From article PMC3317640, “A Novel Enzymatic System against Oxidative Stress in the Thermophilic Hydrogen-Oxidizing Bacterium Hydrogenobacter thermophilus” (PLoS ONE, 2012)

Experiments:
[1] = substrate: CC(C)(OO)c1ccccc1; experiment: hydroperoxide removal, FOX1 (xylenol orange) assay, Michaelis-Menten; format: biochemical, Hydrogenobacter thermophilus; conditions: 0.5 mM NADPH and FNR as electron donor system, 50 mM sodium phosphate pH 6.0, 50°C, anaerobic
[2] = substrate: CC(C)(C)OO; experiment: as above; format: biochemical, Hydrogenobacter thermophilus; conditions: 0.5 mM NADPH and FNR as electron donor system, 50 mM sodium phosphate pH 6.0, 50°C, anaerobic

B1: ferriperoxin (Fpx) (Hydrogenobacter thermophilus TK-6) (protein)
chain: MKSLAGTKTLECLKHAFAGESQANRRYLYFARKADIEGYPDIANVFRETAEGETGHAFGHLEFLEKYGGGDPATGKPIGSMEQNLEAAIAGETYEYTEMYPGFAKTAREEGFDDIAEWFETLARAEKSHAGRFQKALESLKA
notes: full-length untagged (own start and stop codon, pET21c NdeI-HindIII), E. coli BL21(DE3); N-terminus MKSLAGTKTL; diiron holoprotein
B1 was tested. Which Km [1] did it give?
Its Km is 1100 ± 200 µM.

And the Km [2]?
The Km was 1300 ± 300 µM.
